Test results as given in patent US8927500.
pIC50: −log10 of the molar value. Values joined by “and” are separate entries in the source; they are usually repeats but may differ in a detail not shown here. Identical values can stand only once.

Molecular target: MDM2 (In-house, 41 kD) (UniProt Q00987)
Assay: competitive fluorescence polarization, MDM2 with FAM-labeled linear peptide; graded scale of paragraph 458

Chain of MDM2 (In-house, 41 kD) (Q00987 1-138 limits assumed): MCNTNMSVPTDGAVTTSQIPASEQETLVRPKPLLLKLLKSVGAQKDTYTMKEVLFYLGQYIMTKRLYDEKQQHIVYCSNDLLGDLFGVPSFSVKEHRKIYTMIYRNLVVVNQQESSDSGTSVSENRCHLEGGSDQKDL

Row | pIC50 | Substance
1 | > 8.00 | peptidomimetic macrocycle SP755, Ac-tawyanf4CF3e$r5llr$r5a-NH2 (peptide)
2 | > 8.00 | peptidomimetic macrocycle SP757, Ac-tawy$s8nf4CF3ekll$r5a-NH2 (peptide)
3 | < 7.00 and > 6.00 | peptidomimetic macrocycle SP752, Ac-t$r5wya$r5f4CF3ekllr-NH2 (peptide)
4 | < 8.00 and > 7.00 | peptidomimetic macrocycle SP756, Ac-t$s8wyanf4CF3e$r5llr-NH2 (peptide)
5 | < 8.00 and > 7.00 | peptidomimetic macrocycle SP758, Ac-tawya$s8f4CF3ekllr$r5a-NH2 (peptide)
6 | < 8.00 and > 7.00 | peptidomimetic macrocycle SP753, Ac-tawy$r5nf4CF3e$r5llr-NH2 (peptide)
7 | < 7.00 and > 6.00 | peptidomimetic macrocycle SP754, Ac-tawya$r5f4CF3ek$r5lr-NH2 (peptide)
